From US12540197B2, “Anti-tissue factor antibodies and antibody conjugates, compositions comprising anti-tissue factor antibodies or antibody conjugates, and methods of making and using anti-tissue factor antibodies and antibody conjugates” (SUTRO BIOPHARMA, INC., priority 2023, dated 2026)

Test system: BxPC3 cells
Assay: Secondary ADC cell killing assay (antibody + anti-human Fc nanobody conjugated to SC236) on BxPC3
Assay type: cell-based
Conditions: Table 17; nanobody-SC236 20 nM, 120 hrs
Experimental: The internalization ability of the lead antibodies was evaluated by an ADC cell killing assay on Tissue Factor positive BxPC3 cells. A total of 625 cells in a volume of 25 μL were seeded in each well of a 384-well flat bottom white polystyrene plate. Lead antibodies were formulated at 4-fold starting concentration in the cell culture medium and filtered through MultiScreenHTS 96-Well Filter Plates (Millipore; Billerica, Massachusetts). 12.5 μL of antibody was added into each treatment well, and 12.5 μL of anti-human Fc nanobody conjugated to SC236 was then added into each well at a fixed final concentration of 20 nM. Assay plates were cultured at 37° C. in a CO2 incubator for 120 hrs before assay. For cell viability measurement, 30 μL of Cell Titer-Glo® reagent (Promega Corp. Madison, WI) was added into each well, and plates were processed as per product instructions. Relative luminescence was measured on an ENVISION® plate reader (Perkin-Elmer; Waltham, MA). Relative luminescence readings were converted to percent viability using untreated cells as controls. Data was fitted with non-linear regression analysis, using a log (inhibitor) vs. response-variable slope, 4 parameter fit with GraphPad Prism (GraphPad v 5.0, Software; San Diego, California).

| Molecule | BxPC3 Cell Killing Span (%) | EC50 [nM] |
| --- | --- | --- |
| SRP2901-E03 (antibody, V domains shown) VH: MEVQLVESGGGLVQPGGSLRLSCAASGFSISSYDMSWVRQAPGKGLEWIGIIGSNGRTYYPDSVKGRFTISRDNSKNTVTLQMNSLRAEDTAVYYCARGLYDGTGNIWGQGTLVTVSS VL: MELVMTQSPPTLSLSPGERVTLSCRASQSVYGNNWLSWYQQKPGQAPRLLIYGASKLATSIPARFSGSGSGTQFTLTISSLQPEDFAVYYCQGTYYSGDWYFAFGQGTKVEIK | 92.4 | 0.166 |
| SRP2901-D03 (antibody, V domains shown) VH: MEVQLVESGGGLVQPGGSLRLSCAASGFSISSYDMSWVRQAPGKGLEWIGIIGSNGRTYYPDSVKGRFTISRDNSKNTVTLQMNSLRAEDTAVYYCARGLYDGTGNIWGQGTLVTVSS VL: MDLQMTQSPSSLSASVGDRVTITCRASQSVYGNNWLSWYQQKPGKAPKLLIYGASKLASGVPSRFSGSGSGTQFTLTISSLQPEDFATYYCQGTYYSGDWYFAFGQGTKVEIK | 77.4 | 0.184 |
| SRP2901-F01 (antibody, V domains shown) VH: MQVQVVESGGGLVKPGGSLRLSCAASGFSISSYDMSWIRQAPGKGLEWIGIIGSNGRTYYADSVKGRFTISRNTNENTVYLQMNSLRAEDTAVYYCARGLYDGTGNIWGQGTLVTVSS VL: MDIQMTQSPSSLSASVGDRVTITCQASQSVYGNNWLSWYQQKPGKAPKLLIYGASKLASGVPSRFSGSGSGTDFTLTISSLQPEDFATYYCQGTYYSGDWYFAFGGGTKVEIK | 87 | 0.364 |
| SRP2901-B05 (antibody, V domains shown) VH: MQVQVQESGPGLVKPPGTLSLTCAVSGFSLSYYGVSWVRQPPGKGLEWIGTIDSSGRTYYNPSLKSRVTISNDNAPNTVSLKLSSVTAADTAVYYCARDFYGWNSGALDIWGQGTLVTVSS VL: MDLQLTQSPSTLSASVGDRVTITCRASQSVYSNKYLSWYQQKPGKAPKLLIYKASTLASGVPSRFSGSGSGTEFTLTISSLQPDDFATYYCAAAYSDDSDTAFGQGTKVEIK | 84 | 0.059 |
